From publication PMC7350215, “Features of the Human Antibody Response against the Respiratory Syncytial Virus Surface Glycoprotein G” (Vaccines, 2020) come the findings set out here.

The data set concerns the molecule itself. Description: non-reducing SDS-PAGE with immunoblot; purified A2-G separated under non-reducing or reducing conditions, blot stained with anti-His antibodies. For orientation: Immunoblotting shows a protein as a band on a membrane.

B1: Recombinant RSV A2-derived G protein (extracellular domain of the attachment glycoprotein G, amino acids 66 to 298) (domain or fragment)
chain: NHKVTPTTAIIQDATSQIKNTTPTYLTQNPQLGISPSNPSEITSQITTILASTTPGVKSTLQSTTVKTKNTTTTQTQPSKPTTKQRQNKPPSKPNNDFHFEVFNFVPCSICSNNPTCWAICKRIPNKKPGKKTTTKPTKKPTLKTTKKDPKPQTTKSKEVPTTKPTEEPTINTTKTNIITTLLTSNTTGNPELTSQMETFHSTSSEGNPSPSQVSTTSEYPSQPSSPPNTPRQ
notes: Attachment glycoprotein G of respiratory syncytial virus strain A2, UniProtKB/Swiss-Prot P03423.1, extracellular domain, amino acids 66 to 298 (N66 to Q298); also called A2-G; recombinant His-tagged A2-G; not shown: His6, C-terminal, kept
With B1, the binding result was “binds”.
